Source: publication PMC11969024 (2025)

B1: peptide HD2 (from tick evasin EVA4) / CXCL13 (biotinylated, synthetic) (parent complex)
chain 1: EEDDYTAYAPLTCYFT
chain 2: VLEVYYTSLRCRCVQESSVFIPRRFIDRIQILPRGNGCPRKEIIVWKKNKSIVCVDPQAEWIQRMMEVLRKRSSSTLPVPVFKRKIP
B2: peptide HD2 (from tick evasin EVA4) / CCL22 (biotinylated, synthetic) (parent complex)
chain 1: EEDDYTAYAPLTCYFT
chain 2: GPYGANMEDSVCCRDYVRYRLPLRVVKHFYWTSDSCPRPGVVLLTFRDKEICADPRVPWVKMILNKLSQ

Variants of: B1
With chain 1 A9Y the enrichment was -1.21 log2 (difference from the parental peptide). chain 1 E2S was tested, and the enrichment was -2.79 log2 (difference from the parental peptide). With chain 1 D4Y the enrichment was -2.64 log2 (difference from the parental peptide). chain 1 E1K was tested, and the enrichment was -4.84 log2 (difference from the parental peptide). In the case of chain 1 F15S, the enrichment is reported as -6.75 log2 (difference from the parental peptide). With chain 1 P10N the enrichment was -5.21 log2 (difference from the parental peptide). In the case of chain 1 L11W, the enrichment is reported as -1.43 log2 (difference from the parental peptide). With chain 1 E2W the enrichment was 1.38 log2 (difference from the parental peptide). For chain 1 T12M, the enrichment was -0.149 log2 (difference from the parental peptide). For chain 1 Y5D, the enrichment was 1.05 log2 (difference from the parental peptide). In the case of chain 1 Y8A, the enrichment is reported as -4.55 log2 (difference from the parental peptide). With chain 1 Y5G the enrichment was -3.88 log2 (difference from the parental peptide). chain 1 D3L was tested, and the enrichment was -5.21 log2 (difference from the parental peptide). In the case of chain 1 Y5P, the enrichment is reported as -1.42 log2 (difference from the parental peptide). For chain 1 Y14H, the enrichment was -4.76 log2 (difference from the parental peptide). With chain 1 E1S the enrichment was -2.39 log2 (difference from the parental peptide). chain 1 T12F was tested, and the enrichment was -1.29 log2 (difference from the parental peptide). In the case of chain 1 Y5A, the enrichment is reported as -2.67 log2 (difference from the parental peptide). chain 1 T16S was tested, and the enrichment was 0.948 log2 (difference from the parental peptide). chain 1 A9H was tested, and the enrichment was -1.63 log2 (difference from the parental peptide). chain 1 Y5M was tested, and the enrichment was -0.226 log2 (difference from the parental peptide).

Variants of: B2
With chain 1 F15W the enrichment was 0.858 log2 (difference from the parental peptide). chain 1 D4P was tested, and the enrichment was -7.07 log2 (difference from the parental peptide). chain 1 Y14V was tested, and the enrichment was 0.032 log2 (difference from the parental peptide). For chain 1 A7N, the enrichment was 0.601 log2 (difference from the parental peptide). chain 1 P10D was tested, and the enrichment was -7.41 log2 (difference from the parental peptide). In the case of chain 1 T12K, the enrichment is reported as 2.34 log2 (difference from the parental peptide). chain 1 T12S was tested, and the enrichment was -0.091 log2 (difference from the parental peptide). For chain 1 A9V, the enrichment was -7.85 log2 (difference from the parental peptide). With chain 1 F15Q the enrichment was -0.747 log2 (difference from the parental peptide). With chain 1 D3W the enrichment was -4.6 log2 (difference from the parental peptide). chain 1 T6A was tested, and the enrichment was 2.21 log2 (difference from the parental peptide). In the case of chain 1 T6Q, the enrichment is reported as 1.04 log2 (difference from the parental peptide). For chain 1 A7K, the enrichment was 1.75 log2 (difference from the parental peptide). With chain 1 F15N the enrichment was -0.8 log2 (difference from the parental peptide). In the case of chain 1 E1Y, the enrichment is reported as -0.831 log2 (difference from the parental peptide). In the case of chain 1 Y14A, the enrichment is reported as -1.98 log2 (difference from the parental peptide). In the case of chain 1 L11W, the enrichment is reported as -0.394 log2 (difference from the parental peptide). With chain 1 A7F the enrichment was -4.01 log2 (difference from the parental peptide). In the case of chain 1 T16R, the enrichment is reported as 0.774 log2 (difference from the parental peptide). With chain 1 C13V the enrichment was -4.77 log2 (difference from the parental peptide). With chain 1 C13T the enrichment was -3.64 log2 (difference from the parental peptide). In the case of chain 1 C13N, the enrichment is reported as -2.81 log2 (difference from the parental peptide). For chain 1 T16C, the enrichment was -0.313 log2 (difference from the parental peptide). For chain 1 T12N, the enrichment was -0.224 log2 (difference from the parental peptide). With chain 1 E1F the enrichment was -2.24 log2 (difference from the parental peptide). With chain 1 D4M the enrichment was -4.82 log2 (difference from the parental peptide). For chain 1 C13E, the enrichment was -7.93 log2 (difference from the parental peptide). In the case of chain 1 T16F, the enrichment is reported as -0.929 log2 (difference from the parental peptide). With chain 1 T12R the enrichment was 4.22 log2 (difference from the parental peptide). In the case of chain 1 A9F, the enrichment is reported as -6.96 log2 (difference from the parental peptide). For chain 1 D4W, the enrichment was -3.58 log2 (difference from the parental peptide). With chain 1 Y14K the enrichment was -0.0931 log2 (difference from the parental peptide). For chain 1 D4Q, the enrichment was -6.48 log2 (difference from the parental peptide). In the case of chain 1 T6W, the enrichment is reported as 0.246 log2 (difference from the parental peptide). With chain 1 A7S the enrichment was 0.765 log2 (difference from the parental peptide). With chain 1 A7R the enrichment was 1.93 log2 (difference from the parental peptide). In the case of chain 1 A9K, the enrichment is reported as -1.67 log2 (difference from the parental peptide). For chain 1 T6F, the enrichment was -4.13 log2 (difference from the parental peptide). For chain 1 Y14N, the enrichment was -0.898 log2 (difference from the parental peptide). With chain 1 A7H the enrichment was -1.29 log2 (difference from the parental peptide). With chain 1 T6V the enrichment was -4.41 log2 (difference from the parental peptide). In the case of chain 1 Y5L, the enrichment is reported as -1.89 log2 (difference from the parental peptide). chain 1 L11P was tested, and the enrichment was -5.29 log2 (difference from the parental peptide). For chain 1 F15H, the enrichment was 0.892 log2 (difference from the parental peptide). For chain 1 T6R, the enrichment was -0.184 log2 (difference from the parental peptide). chain 1 Y8V was tested, and the enrichment was -7.55 log2 (difference from the parental peptide). chain 1 E2P was tested, and the enrichment was -5.46 log2 (difference from the parental peptide). In the case of chain 1 L11R, the enrichment is reported as 1.13 log2 (difference from the parental peptide). With chain 1 F15G the enrichment was -2.74 log2 (difference from the parental peptide). For chain 1 C13D, the enrichment was -7.57 log2 (difference from the parental peptide). For chain 1 P10W, the enrichment was -5.26 log2 (difference from the parental peptide). chain 1 T6P was tested, and the enrichment was -4.79 log2 (difference from the parental peptide). For chain 1 A9Q, the enrichment was -2.13 log2 (difference from the parental peptide). With chain 1 D4I the enrichment was -7.79 log2 (difference from the parental peptide). With chain 1 T16P the enrichment was 1.71 log2 (difference from the parental peptide). chain 1 L11A was tested, and the enrichment was -0.478 log2 (difference from the parental peptide). With chain 1 T6K the enrichment was -1.04 log2 (difference from the parental peptide). In the case of chain 1 Y14G, the enrichment is reported as -4.12 log2 (difference from the parental peptide). In the case of chain 1 P10G, the enrichment is reported as -7.9 log2 (difference from the parental peptide). With chain 1 L11F the enrichment was 0.136 log2 (difference from the parental peptide). chain 1 Y8S was tested, and the enrichment was -8.74 log2 (difference from the parental peptide). chain 1 T6H was tested, and the enrichment was -0.511 log2 (difference from the parental peptide). chain 1 Y5M was tested, and the enrichment was -1.76 log2 (difference from the parental peptide). chain 1 L11S was tested, and the enrichment was 0.482 log2 (difference from the parental peptide). chain 1 T12A was tested, and the enrichment was -0.997 log2 (difference from the parental peptide). In the case of chain 1 T12P, the enrichment is reported as 2.6 log2 (difference from the parental peptide). chain 1 L11G was tested, and the enrichment was -5.39 log2 (difference from the parental peptide). With chain 1 F15L the enrichment was -0.246 log2 (difference from the parental peptide). chain 1 L11C was tested, and the enrichment was 0.802 log2 (difference from the parental peptide). With chain 1 Y5S the enrichment was -6.78 log2 (difference from the parental peptide). For chain 1 A9R, the enrichment was 0.319 log2 (difference from the parental peptide). For chain 1 A9E, the enrichment was -1.54 log2 (difference from the parental peptide). For chain 1 Y14T, the enrichment was 1.08 log2 (difference from the parental peptide). chain 1 D3P was tested, and the enrichment was -3.61 log2 (difference from the parental peptide). With chain 1 Y14L the enrichment was -2.35 log2 (difference from the parental peptide). chain 1 T16N was tested, and the enrichment was 0.543 log2 (difference from the parental peptide). For chain 1 C13H, the enrichment was -3.89 log2 (difference from the parental peptide). For chain 1 E1D, the enrichment was 2.17 log2 (difference from the parental peptide). In the case of chain 1 Y5I, the enrichment is reported as -6.63 log2 (difference from the parental peptide). In the case of chain 1 P10Y, the enrichment is reported as -6.98 log2 (difference from the parental peptide). With chain 1 T12Y the enrichment was 2.35 log2 (difference from the parental peptide). With chain 1 E1T the enrichment was -2.09 log2 (difference from the parental peptide). chain 1 E1M was tested, and the enrichment was -0.805 log2 (difference from the parental peptide). For chain 1 A9Y, the enrichment was -6.66 log2 (difference from the parental peptide). chain 1 Y5W was tested, and the enrichment was 1.1 log2 (difference from the parental peptide). In the case of chain 1 Y14P, the enrichment is reported as -3.33 log2 (difference from the parental peptide). chain 1 C13I was tested, and the enrichment was -3.42 log2 (difference from the parental peptide). In the case of chain 1 E2H, the enrichment is reported as -3.64 log2 (difference from the parental peptide). In the case of chain 1 C13G, the enrichment is reported as -5.34 log2 (difference from the parental peptide). For chain 1 L11N, the enrichment was -4.2 log2 (difference from the parental peptide). chain 1 E1S was tested, and the enrichment was -1.77 log2 (difference from the parental peptide). In the case of chain 1 T6Y, the enrichment is reported as -1.26 log2 (difference from the parental peptide). chain 1 A7G was tested, and the enrichment was 0.519 log2 (difference from the parental peptide). For chain 1 D4L, the enrichment was -6.02 log2 (difference from the parental peptide). chain 1 D3S was tested, and the enrichment was -4.38 log2 (difference from the parental peptide). For chain 1 Y14W, the enrichment was -0.554 log2 (difference from the parental peptide). In the case of chain 1 Y14S, the enrichment is reported as 0.0467 log2 (difference from the parental peptide). In the case of chain 1 C13P, the enrichment is reported as -6.43 log2 (difference from the parental peptide). In the case of chain 1 Y14R, the enrichment is reported as -0.04 log2 (difference from the parental peptide). chain 1 L11H was tested, and the enrichment was 2.09 log2 (difference from the parental peptide). For chain 1 L11D, the enrichment was -5.76 log2 (difference from the parental peptide). For chain 1 D3V, the enrichment was -6.53 log2 (difference from the parental peptide). With chain 1 T16Q the enrichment was 1.11 log2 (difference from the parental peptide). In the case of chain 1 Y5A, the enrichment is reported as -7.07 log2 (difference from the parental peptide). chain 1 F15D was tested, and the enrichment was -4.01 log2 (difference from the parental peptide). For chain 1 D3T, the enrichment was -3.61 log2 (difference from the parental peptide). With chain 1 C13Y the enrichment was -2.53 log2 (difference from the parental peptide). For chain 1 F15T, the enrichment was 0.636 log2 (difference from the parental peptide). In the case of chain 1 T6G, the enrichment is reported as 3.08 log2 (difference from the parental peptide). With chain 1 T6I the enrichment was -6.01 log2 (difference from the parental peptide). chain 1 D3L was tested, and the enrichment was -5 log2 (difference from the parental peptide). With chain 1 T6C the enrichment was -9.54 log2 (difference from the parental peptide). With chain 1 E2A the enrichment was -2.53 log2 (difference from the parental peptide). In the case of chain 1 T12I, the enrichment is reported as -0.506 log2 (difference from the parental peptide). In the case of chain 1 F15K, the enrichment is reported as 0.708 log2 (difference from the parental peptide). With chain 1 D4S the enrichment was -6.14 log2 (difference from the parental peptide). With chain 1 T12F the enrichment was -1.02 log2 (difference from the parental peptide). In the case of chain 1 E1G, the enrichment is reported as -1.59 log2 (difference from the parental peptide). For chain 1 E1A, the enrichment was -1.32 log2 (difference from the parental peptide). chain 1 E1Q was tested, and the enrichment was -0.35 log2 (difference from the parental peptide). For chain 1 D3N, the enrichment was -3.54 log2 (difference from the parental peptide). With chain 1 D3M the enrichment was -3.93 log2 (difference from the parental peptide). For chain 1 E2K, the enrichment was -5.15 log2 (difference from the parental peptide). For chain 1 Y14F, the enrichment was -0.133 log2 (difference from the parental peptide). In the case of chain 1 T12M, the enrichment is reported as -0.275 log2 (difference from the parental peptide). In the case of chain 1 E1V, the enrichment is reported as -1.89 log2 (difference from the parental peptide). chain 1 F15Y was tested, and the enrichment was 1.03 log2 (difference from the parental peptide). With chain 1 Y14M the enrichment was -1.86 log2 (difference from the parental peptide). With chain 1 F15I the enrichment was -0.829 log2 (difference from the parental peptide).
